Laboratory results published in patent publication US20040176285A1, “Tip39 polypeptides” (priority 2001, published 2004).
Entries after “also recorded” stand apart in the source; their conditions may differ. Where a SMILES comes first, the peptide text is derived from it. Where no end group is shown, it is not given here.

Columns and labels:
PTH1R [1] = molecular target: T1, PTH1R (Homo sapiens, UniProt Q03431); test: Ligand-stimulated cAMP accumulation in HKrk-B7 cells; assay type: cell-based; set-up: expressed in transfected cells
T1 sequence (Q03431 27-593): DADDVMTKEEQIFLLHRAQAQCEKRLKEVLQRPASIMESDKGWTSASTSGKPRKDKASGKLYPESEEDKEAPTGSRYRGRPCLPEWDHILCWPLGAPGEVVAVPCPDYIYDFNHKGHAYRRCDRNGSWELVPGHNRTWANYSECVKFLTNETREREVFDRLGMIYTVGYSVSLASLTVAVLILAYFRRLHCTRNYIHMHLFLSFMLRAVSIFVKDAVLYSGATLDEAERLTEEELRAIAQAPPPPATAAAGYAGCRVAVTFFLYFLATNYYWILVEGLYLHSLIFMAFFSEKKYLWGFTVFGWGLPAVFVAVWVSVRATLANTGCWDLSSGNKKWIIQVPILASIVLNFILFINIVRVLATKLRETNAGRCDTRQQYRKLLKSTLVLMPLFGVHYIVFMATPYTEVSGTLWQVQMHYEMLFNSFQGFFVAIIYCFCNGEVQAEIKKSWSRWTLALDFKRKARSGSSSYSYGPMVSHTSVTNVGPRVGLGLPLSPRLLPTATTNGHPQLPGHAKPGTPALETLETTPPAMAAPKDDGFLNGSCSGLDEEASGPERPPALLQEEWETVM
Description: (§1) DMEM, Trypsin/EDTA, and penicillin G/streptomycin and horse serum were from Gibco/BRL, Life Technologies, Gaithersburg, Md. LLC-PK, expressing the recombinant human PTH1R (HKrk-B7 cells) and SaOS-2 cells expressing the wild-type PTH1R endogenously were cultured in DMEM supplemented with 10% heat-inactivated fetal bovine serum, 100 U/ml penicillin, 100 μg/ml streptomycin, as previously described (Gardella, T. J., et al., J. Biol. Chem. 271:19888-19893 (1996); Fukayama, S., et al., Endocrinology 134:1851-1858 (1994)); both cell lines were maintained in a humidified atmosphere containing 95% air and 5% CO2. After seeding, medium was replaced daily, until cells were used for radioligand binding or cAMP accumulation assays.
(§2) Na^125I (specific activity: 2,000 Ci/mmol) was purchased from DuPont/NEN, Boston, Mass. Fetal bovine serum, 3-isobutyl-1-methyl-xanthine (IBMX), and BSA were from Sigma, St. Louis, Mo., and trifluoroacetic acid (TFA) was from Pierce, Rockford, Ill. Radiolabeled rPTH(1-34) and PTHrP(1-36) were prepared by the chloramine-T method, followed by HPLC purification using a 30-50% ACN/0.1% TFA gradient over 30 minutes; radioreceptor assays were performed in 24-well plates as previously described (Gardella, T. J., et al., J. Biol. Chem. 271:19888-19893 (1996); Fukayama, S. et al., Endocrinology 134:1851-1858 (1994)). In brief, each well (final volume 500 μl) contained binding buffer (BB; 50 mM Tris-HCl (pH 7.7), 100 mM NaCl, 5 mM KCl, 2 mM CaCl2, 5% heat-inactivated horse serum, and 0.5% heat-inactivated fetal bovine serum), the ^125I-labeled PTH or PTHrP analog (100,000 to 200,000 cpm) was incubated in the absence or presence of increasing concentrations of unlabeled peptides. After 4 h at 16° C., buffer was completely removed, the cells were rinsed with cold BB and lysed with 1 M NaOH. The entire lysate was counted for γ-irradiation. Specific binding was determined after subtracting radioactivity bound in the presence of maximal concentrations of unlabeled competing peptide (10^−6 M). Agonist-dependent stimulation of cAMP accumulation by HKrk-B7 and SaOS-2 cells (48-well plates; stimulation at room temperature for 45 minutes) and the subsequent measurement of cAMP by radioimmunoassay was performed as previously described (Gardella, T. J., et al., J. Biol. Chem. 271:19888-19893 (1996); Bergwitz, C., et al., Endocrinology 139:723-732 (1998)). Data were analyzed and graphically illustrated using the graph-pad prism software package.
The values for EC50 and Vmax (mean±SE) are derived from at least three independent experiments.

PTH1R [2] = molecular target: T1, PTH1R; test: Radioreceptor binding assay with HKrk-B7 cells; set-up: expressed in transfected cells
Description: as §1, §2
The binding properties of these peptides were evaluated in radioreceptor assays with HKrk-B7 cells, which express the PTH IR at high density (approximately […]) (Carter, P. H., et al., Endocrinology 140:4972-4981 (1999)), using either radiolabeled rPTH(1-34) or PTHrP(1-36).
The calculated IC50 values (mean±SE) are derived from at least three independent experiments.

endogenous PTH1R = molecular target: T2, endogenous PTH1R (Homo sapiens, UniProt Q03431); test: Ligand-stimulated cAMP accumulation in SaOS-2 cells; assay type: cell-based
T2 construct: SaOS-2 cells expressing the wild-type PTH1R endogenously; endogenous in cells; host or cells: SaOS-2 human osteosarcoma cells
T2 sequence (Q03431 27-593): T1 sequence (Q03431 27-593)
Description: as §1
as §2, with “After 4 h at 16° C., buffer was completely removed, the cells were rinsed with cold BB and lysed with 1 M NaOH.” left out, “Agonist-dependent stimulation of cAMP accumulation by HKrk-B7 and SaOS-2 cells (48-well plates; stimulation at room temperature for 45 minutes) and the subsequent measurement of cAMP by radioimmunoassay was performed as previously described (Gardella, T. J., et al., J. Biol. Chem. 271:19888-19893 (1996); Bergwitz, C., et al., Endocrinology 139:723-732 (1998)).” left out, “package. […]” for “package.”

[3] = molecular target: T3, human PTH/PTHrP receptor (PTH1R) (human, UniProt Q03431 27-593); test: radioreceptor competition on HKrk-B7 cells; tracer 125I-rat [Nle8,21,Tyr34]PTH(1-34)amide
T3 construct: whole, on cells; HKrk-B7 cells about 10^6 receptors/cell; SaOS-2 about 30,000 receptors/cell; also called hPTH-1 receptor; PTH-1 receptor
T3 sequence (looked up): T1 sequence (Q03431 27-593)
Description: (§3) Na¹²⁵I (specific activity: 2,000 Ci/mmol) was purchased from DuPont/NEN, Boston, Mass. Fetal bovine serum, 3-isobutyl-1-methyl-xanthine (IBMX), and BSA were from Sigma, St. Louis, Mo., and trifluoroacetic acid (TFA) was from Pierce, Rockford, Ill. […] After 4 h at 16° C., buffer was completely removed, the cells were rinsed with cold BB and lysed with 1 M NaOH. The entire lysate was counted for γ-irradiation. Specific binding was determined after subtracting radioactivity bound in the presence of maximal concentrations of unlabeled competing peptide (10⁻⁶ M). Agonist-dependent stimulation of cAMP accumulation by HKrk-B7 and SaOS-2 cells (48-well plates; stimulation at room temperature for 45 minutes) and the subsequent measurement of cAMP by radioimmunoassay was performed as previously described (Gardella, T. J., et al., J. Biol. Chem. 271:19888-19893 (1996); Bergwitz, C., et al., Endocrinology 139:723-732 (1998)). Data were analyzed and graphically illustrated using the graph-pad prism software package.

[4] = molecular target: T3, human PTH/PTHrP receptor (PTH1R); test: cell-based or functional assay
[5] = molecular target: T3, human PTH/PTHrP receptor (PTH1R); test: radioreceptor competition on HKrk-B7 cells; tracer 125I-[Tyr36]PTHrP(1-36)amide
Description: as §3

[6] = maximal cAMP accumulation, mean±SE

CC[C@H](C)[C@H](NC(=O)[C@H](CO)NC(=O)[C@H](CCCCN)NC(=O)CNC(=O)[C@H](CCCCN)NC(=O)[C@H](CC(=O)O)NC(=O)[C@H](Cc1c[nH]cn1)NC(=O)[C@H](CC(C)C)NC(=O)[C@H](CC(C)C)NC(=O)[C@H](CCC(N)=O)NC(=O)[C@H](Cc1c[nH]cn1)NC(=O)[C@H](CCC(=O)O)NC(=O)[C@H](CO)NC(=O)[C@@H](NC(=O)[C@H](C)N)C(C)C)C(=O)N[C@@H](CCC(N)=O)C(=O)N[C@@H](CC(=O)O)C(=O)N[C@@H](CC(C)C)C(=O)N[C@@H](CCCNC(=N)N)C(=O)N[C@@H](CCCNC(=N)N)C(=O)N[C@@H](CCCNC(=N)N)C(=O)N[C@@H](Cc1c[nH]cn1)C(=O)N[C@@H](Cc1c[nH]c2ccccc12)C(=O)N[C@@H](CC(C)C)C(=O)N[C@@H](CC(N)=O)C(=O)N[C@@H](CO)C(=O)N[C@@H](Cc1ccc(O)cc1)C(=O)N[C@@H](CCSC)C(=O)N[C@@H](Cc1c[nH]cn1)C(=O)N[C@@H](CCCCN)C(=O)N[C@@H](CC(C)C)C(=O)N[C@@H](CC(C)C)C(=O)N[C@H](C(=O)N[C@@H](CC(C)C)C(=O)N[C@@H](CC(=O)O)C(=O)N[C@@H](C)C(=O)N1CCC[C@H]1C(N)=O)C(C)C [PTHrP(1-20)/TIP(23-39)] (H-AVSEHQLLHDKGKSIQDLRRRHWLNSYMHKLLVLDAP-NH2)
Vmax (efficacy) of cAMP accumulation (PTH1R [1]; HKrk-B7 cells): 39±8 pmol/well
stimulation of cAMP accumulation at the PTH1R (in words) (PTH1R [1]; HKrk-B7 cells): full and potent agonist
HKrk-B7 Maxobs (PTH1R [1]; [6]): 39 ± 8 pmol/48-well
binding affinity higher than that of PTHrP(1-36) (PTH1R [2]): 2- to 4 fold
binding affinity weaker than that of PTH(1-34) (PTH1R [2]): 3- to 4 fold
improvement in apparent binding affinity (IC50) relative to TIP(1-39) (PTH1R [2]; either radioligand): 8- to 19 fold
Vmax (efficacy) of cAMP accumulation (endogenous PTH1R; SaOS-2 cells): 31±3 pmol/well
SaOS-2 Maxobs (endogenous PTH1R; [6]): 31 ± 3 pmol/48-well

CSCC[C@H](NC(=O)[C@H](Cc1ccc(O)cc1)NC(=O)[C@H](CO)NC(=O)[C@H](CC(N)=O)NC(=O)[C@H](CC(C)C)NC(=O)[C@H](Cc1c[nH]c2ccccc12)NC(=O)[C@H](Cc1c[nH]cn1)NC(=O)[C@H](CCCNC(=N)N)NC(=O)[C@H](CCCNC(=N)N)NC(=O)[C@H](CCC(=O)O)NC(=O)[C@H](CC(C)C)NC(=O)[C@H](C)NC(=O)[C@H](C)NC(=O)[C@H](CC(C)C)NC(=O)[C@H](CC(C)C)NC(=O)[C@H](CCCNC(=N)N)NC(=O)[C@H](C)NC(=O)[C@H](CCCNC(=N)N)NC(=O)[C@H](CCC(=O)O)NC(=O)[C@H](CCCNC(=N)N)NC(=O)[C@H](Cc1ccccc1)NC(=O)[C@H](C)NC(=O)[C@H](C)NC(=O)[C@H](CC(=O)O)NC(=O)[C@H](CC(=O)O)NC(=O)[C@H](C)NC(=O)[C@H](CC(C)C)NC(=O)[C@H](C)N)C(=O)N[C@@H](Cc1c[nH]cn1)C(=O)N[C@@H](CCCCN)C(=O)N[C@@H](CC(C)C)C(=O)N[C@@H](CC(C)C)C(=O)N[C@H](C(=O)N[C@@H](CC(C)C)C(=O)N[C@@H](CC(=O)O)C(=O)N[C@@H](C)C(=O)N1CCC[C@H]1C(N)=O)C(C)C [TIP(3-39)] (H-ALADDAAFRERARLLAALERRHWLNSYMHKLLVLDAP-NH2)
stimulation of cAMP accumulation at the PTH1R (in words) (PTH1R [1]; HKrk-B7 cells): lack of second messenger formation; also recorded: failed to stimulate cAMP accumulation

PTHrP(1-6)/TIP(9-39): chimera of human PTHrP residues 1-6 and bovine TIP residues 9-39
stimulation of cAMP accumulation at the PTH1R (in words) (PTH1R [1]; HKrk-B7 cells): None of these peptides, however, stimulated cAMP formation; also recorded: lack of PTH1R activation

PTHrP(1-20)amide (AVSEHQLLHDKGKSIQDLRR-NH2) [reference compound]
inhibition of radioligand binding to the PTH1R (in words) (PTH1R [2]; either radioligand): did not inhibit the binding of either radioligand

TIP(19-39): TIP39 analog truncated at the amino-terminus, residues 19-39, bovine sequence (ALERRHWLNSYMHKLLVLDAP)
stimulation of cAMP accumulation at the PTH1R (in words) (PTH1R [1]; HKrk-B7 cells): lack of second messenger formation
inhibition of radioligand binding to the PTH1R (in words) (PTH1R [2]; either radioligand): did not inhibit the binding of either radioligand; also recorded: no detectable binding

TIP(23-39): TIP39 analog truncated at the amino-terminus, residues 23-39, bovine sequence (RHWLNSYMHKLLVLDAP)
increase in cAMP accumulation over basal (PTH1R [1]; HKrk-B7 cells, high molar concentrations): ~2 fold over basal
inhibition of radioligand binding to the PTH1R (in words) (PTH1R [2]; either radioligand): did not inhibit the binding of either radioligand; also recorded: no detectable binding

[Ile^7]TIP(1-39): TIP(1-39) having Asp7 replaced by the corresponding isoleucine of PTH (SLALADIAAFRERARLLAALERRHWLNSYMHKLLVLDAP)
stimulation of cAMP accumulation at the PTH1R (in words) (PTH1R [1]; HKrk-B7 cells): None of these peptides, however, stimulated cAMP formation; also recorded: no activation of the PTH1R

H-AVSEHQLLHDKGKSIQDLRRRHWLNSYMHKLLVLDAP-NH2 (also called PTHrP/TIP chimera) [PTHrP(1-20)/TIP(23-39)]
IC50 [3]: 31 nM
EC50 of cAMP accumulation, HKrk-B7 cells [4]: 1.4 nM
EC50 of cAMP accumulation, SaOS-2 cells [4]: 0.38 nM
IC50 [5]: 11 nM

SVSEIQLMHNLGKHLNSMERVEWLRKKLQDVHNY (not fully specified (C-terminus)) [[Tyr^34] human PTH(1-34)amide]
EC50 of cAMP accumulation, SaOS-2 cells [4]: 0.3 nM
